The results in this text go back to US20150064217A1, “PLURIPOTENT GERM LAYER ORIGIN ANTIGEN PRESENTING CANCER VACCINE” (CALIFORNIA STEM CELL, INC., priority 2012, published 2015).

One assay concerns SK-5-Mel cells. Description: MHC class II (HLA-DR) expression by flow cytometry with autophagy inhibitor. The class given is cell-based. The note with it: autophagy inhibitor together with interferon-gamma. The procedure: The cells were then harvested and assayed for apoptosis and MHC class II (HLA-DR) expression by flow cytometry.
(§1) The methodology of the study was as follows. Autologous and model melanoma tumor cell lines were incubated with 1000 IU/mL of IFN-gamma for 72 hours prior to assaying for autophagy, apoptosis and MHC class II expression. Autophagy was detected by immunobloting with antibodies against LC3 II and by flow cytometry with Enzo's CytoID® Autophagy Detection Kit. Apoptosis and MHC class II induction were assayed by flow cytometry using 7-AAD and annexin-V staining and antibodies against MHC class II, respectively. 7-AAD intercalates in dsDNA. 7-AAD is excluded by viable cells, and thus it can be used to detect dead cells.
Analysis of tumor cell death and changes in major histocompatibility class II expression in response to IFN-gamma were conducted by use of antibodies directed against MHC class II, annexin-V and 7-amino-actinomycin D (7-AAD) and acquired on a Beckton-Dickenson FACS Calibur® flow cytometer.
(§2) What was investigated was the induction of autophagy, apoptosis and MHC class II molecules after IFN-gamma treatment of melanoma tumor cells in vitro. […] Autophagy was detected by immunobloting with antibodies against LC3 II and by flow cytometry with Enzo's CytoID Autophagy Detection Kit. […]
(Flow cytometry measures light scatter and fluorescence of single cells or particles in a stream.)

Assay [1] has as its system melanoma cell lines. Description: Apoptosis and autophagy induction in melanoma cell lines (7-AAD, annexin-V, LC3 II). Type of assay: cell-based. The procedure: as §1
Analysis of tumor cell death and changes in major histocompatibility class II expression in response to IFN-gamma were conducted by use of antibodies directed against MHC class II, annexin-V and 7-amino-actinomycin D (7-AAD) and acquired on a Beckton-Dickenson FACS Calibur® flow cytometer. […]
as §2

In the next assay the test system is Colon tumor cell line. Briefly: Response to interferon-gamma by flow cytometry, colon tumor cell line. Type of assay: cell-based. The note with it: Sample A, interferon-gamma 72 hours. The text has this: (§3) Pure tumor cells were generated from colon, ovarian, glioblastoma, and renal cell carcinoma according to Dillman and Comforth, et al. (Cornforth, et al. (2011) Cancer Immunol. Immunother. 60:123-131; Dillman, et al. (1993) J. Immunother. Emphasis Tumor Immunol. 14:65-69; Dillman, et al. (2000) Cancer Biother. Radiopharm. 15:161-168; Dillman, et al. (1999) 14:443-449; Dillman et al. (2000) 15:161-168).
(§4) Briefly, tumor biopsies from surgical samples were enzymatically processed into single cell suspensions and purified cell lines generated by differential attachment and serum starvation. The cell lines generated were cryopreserved in liquid nitrogen, thawed and treated with or without interferon-gamma in 5% fetal bovine serum/RPMI media for 72 hours. After exposure to interferon-gamma, the non-adherent cells were analyzed separately from the adherent cells by flow-cytometry. The markers investigated were MHC class I, MHC class II, Annexin V (apoptosis), and 7-ADD (viability).

In assay [2] the test system is autologous melanoma cells. Description: Flow cytometry for MHC class I and class II on autologous melanoma cells. Type of assay: cell-based, human. The note with it: in response to IFN-gamma treatment. On the procedure:
FIGS. 2A-D show characterization of IFN-gamma treated autologous tumor cells used for loading dendritic cells. Autologous melanoma tumor cells were treated with or without 1000 IU/mL IFN-gamma for 72 hours in 15% FBS/ECS in RPMI, harvested and irradiated with 100 Gy and cryopreserved. Cells were then thawed in AIMV and a sample taken for flow cytometry and for preparation of cell lysates for immunoblotting prior to antigen loading of DCs. An example of four separate autologous melanoma cell lines is shown (FIG. 2A, FIG. 2B and FIG. 2C). Induction major histocompatibility complexes by IFN-gamma treatment of autologous tumor cells (FIG. 2D). Tumor cells were harvested after being treated with or without 1000 IU/mL IFN-gamma for 72 hours and then assayed for MHC class I and class II. Control isotype antibodies were used to identify positive populations. Dark data points indicate median mean fluorescent plus/minus 95% confidence interval. N=65. After irradiation, melanoma cells are checked by assays to ensure that there is not any mitosis. […]

The next assay relates to Ovarian tumor cell line. Description: Response to interferon-gamma by flow cytometry, ovarian tumor cell line. Type of assay: cell-based. The following applies: Sample B, interferon-gamma 72 hours.
Source text: as §3, §4

For assay [3], the system named is melanoma cell lines. Description: Immunohistochemistry of tumor associated antigens in melanoma cell lines with or without IFN-gamma. Type of assay: cell-based, human. The note with it: share of melanoma cell lines; 1000 IU/mL IFN-gamma, 72 hours; N = 27 samples. The procedure:
Expression of a panel antigens by melanoma lines were determined using immunocytochemical procedure. Cells were cultured in 8-chamber culture slides (Thermo Fisher, Rochester, N.Y.) in the presence or absence of 1000 IU/mL IFN-gamma. After 72 hours, the cells were washed 3 times with 1× Phosphate Buffered Saline (PBS) and fixed in cold acetone. After blocking endogenous peroxidase, cells were incubated with appropriate primary antibodies against the antigens listed. Immunohistochemistry was performed using biotinylated anitmouse or rabbit immunoglobulins, Super Sensitive enzyme-conjugated streptavidin labeling and horse radish peroxidase chromogen, and substrate kits (Biogenex, San Ramon, Calif.). The reactivity of the following anti-human polyclonal or monoclonal antibodies was investigated with isotype matched control antibody: S-100 and HMB-45 (Biogenex, San Ramon, Calif.), Mel-2, Mel-5, Mart-1 (Signet, Dedham, Mass.), Tyrosinase and Mage-1 (Thermo Scientific, Fremont, Calif.), Melan-A, HLA-class I and HLA-class II (Dako, Denmark).

For assay [4], the system named is Glioblastoma tumor cell line. Description: Response to interferon-gamma by flow cytometry, glioblastoma cell line. The following applies: Sample C, interferon-gamma 72 hours. The class given is cell-based.
Source text: as §3, §4

The test system of assay [5] is Renal Cell Carcinoma tumor cell line. Briefly: Response to interferon-gamma by flow cytometry, renal cell carcinoma cell line. The note with it: Sample D, interferon-gamma 72 hours. The class given is cell-based.
Source text: as §3, §4

Assay [6] concerns autologous melanoma tumor cells. Description: Immunoblotting of melanoma cell lysates. Type of assay: cell-based, human. The following applies: cells incubated with IFN-gamma. The procedure: Cytoplasmic cell lysates were prepared with Mammalian Protein Extraction Reagent (Thermo Scientific, Rockford, Ill.) plus protease inhibitor cocktail (Roche, Indianapolis, Ind.) at 10,000 cells/uL on ice. Approximately 25 uLs/lane of cell lysates were separated on 12.5% tris-glycine gels, transferred to PVDF membrane and probed with antibodies against the following: calreticulin (MBL, Woburn, Mass.), Hsp-60, Hsp-70, Hsp-90 (R&D Systems, Minneapolis, Minn.), HMBG-1 (Cell Signaling, Danvers, Mass.), ICAM-1 (Santa Cruz Biotech, Santa Cruz, Calif.), Mel-4, Mart-1 (Signet, Emeryville, Calif.), tyrosinase (Upstate, Lake Placid, N.Y.) and GADPH (Calbiochem, Darmstadt, Germany).
(A western blot detects proteins with antibodies after separation by electrophoresis.)

For the molecule `Cn1cnc(N)c2ncnc1-2` [3-MA, 3-methyladenine], the “MHC class II expression despite treatment with interferon-gamma” value in the assay on SK-5-Mel cells is on record as “loss of MHC class II expression”.

Consider “carbobenzoxy-valyl-alanyl-aspartyl-[O-methyl]-fluoromethylketone [Z-VAD, reference compound]”, for which the “apoptosis in IFN-gamma treated cells” value in the assay on melanoma cell lines [1] (pan caspase inhibitor with IFN-gamma) is on record as “prevents apoptosis”.

B1: interferon-gamma (protein, UniProt P01579 24-161, looked up)
Interferon gamma: QDPYVKEAENLKKYFNAGHSDVADNGTLFLGILKNWKEESDRKIMQSQIVSFYFKLFKNFKDDQSIQKSVETIKEDMNVKFFNSNKKKRDDFEKLTNYSVTDLNVQRKAIHELIQVMAELSPAAKTGKRKRSQMLFRG
notes: type II interferon (InterMune, Brisbane, Calif.) used to treat tumor cells in vitro
Consider B1, for which, in the assay with Colon tumor cell line, the “Induction of MHC class I” value is given as “Yes”, the “Induction of MHC class II” value was “Yes”, the Induction of apoptosis entry is “No” and the Induction of autophagy result is “Yes”. Besides, the “cases with MHC class II induction greater than two fold” value in assay [2] is 70%. In the assay with Ovarian tumor cell line, the “Induction of MHC class I” value is “Yes”, the “Induction of MHC class II” value is on record as “Yes”, the Induction of apoptosis result is given as “No” and the Induction of autophagy entry is “Yes”. Also, in the assay with melanoma cell lines [3], the “HMB-45 expression: Change after IFN-gamma treatment, Down” value is recorded as 45/5; the “HMB-45 expression: Change after IFN-gamma treatment, None” value turned out to be 54.5%; the “MAGE-1 expression: Change after IFN-gamma treatment, Down” value was 61.5%; the “MAGE-1 expression: Change after IFN-gamma treatment, None” value was found to be 38.5%. Besides, in the assay on melanoma cell lines [3], the “MART-1 expression: Change after IFN-gamma treatment, Down” value was determined as 85.2%; the “MART-1 expression: Change after IFN-gamma treatment, None” value is 14.8%; the “Mel-2 expression: Change after IFN-gamma treatment, Down” value was 53.8%; the “Mel-2 expression: Change after IFN-gamma treatment, None” value was 46.2%. Also, in the assay on melanoma cell lines [3], the “Mel-5 expression: Change after IFN-gamma treatment, Down” value stood at 27.3%; the “Mel-5 expression: Change after IFN-gamma treatment, None” value is reported as 72.7%; the “Melan-A expression: Change after IFN-gamma treatment, Down” value turned out to be 70.8%; the “Melan-A expression: Change after IFN-gamma treatment, None” value stood at 29.2%. Moreover, in the assay on melanoma cell lines [3], the “S-100 expression: Change after IFN-gamma treatment, Down” value was 57.1%; the “S-100 expression: Change after IFN-gamma treatment, None” value was 42.9%; the “Tyrosinase expression: Change after IFN-gamma treatment, Down” value is listed as 60.0%; the “Tyrosinase expression: Change after IFN-gamma treatment, None” value amounted to 40.0%. Besides, in [4], the “Induction of MHC class I” value is on record as “No”, the “Induction of MHC class II” value is reported as “Yes”, the Induction of apoptosis entry was “Yes” and the Induction of autophagy result is listed as “Yes”. Besides, in assay [5], the “Induction of MHC class I” value is “No”, the “Induction of MHC class II” value was “Yes”, the Induction of apoptosis entry is recorded as “Yes” and the Induction of autophagy entry is “Yes”. Further, in the assay on melanoma cell lines [1] (1000 IU/mL IFN-gamma, 72 hours), the “induction of autophagic and apoptotic cell populations” value is “induces both autophagic and apoptotic cell populations”. Also, in assay [6], the “ICAM-1, immunoblot” value was “significantly up-regulated”; the “calreticulin and high-mobility group box-1 protein (HMGB-1), immunoblot” value is “up-regulated in some cases”; the “common melanoma antigens (mel-4, Mart-1 and tyrosinase), immunoblot” value was “down regulated”.
